The results in this text go back to paper PMC314469, “Protein Interaction Networks by Proteome Peptide Scanning” (PLoS Biology, 2004).

Common to all, as to experiment: SPOT array
Experiment [1] deals with T1, Yfr024 SH3 (LSB3_YEAST), P43603.
T1 chain: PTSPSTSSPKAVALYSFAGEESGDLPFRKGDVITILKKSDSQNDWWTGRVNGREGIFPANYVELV

For experiment [2], the target named is T2, Boi2 SH3 (BOI2_YEAST), P39969.
T2 chain: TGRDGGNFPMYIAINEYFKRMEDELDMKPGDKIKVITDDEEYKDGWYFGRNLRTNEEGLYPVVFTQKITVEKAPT

Experiment [3] deals with T3, Boi1 SH3 (BOI1_YEAST), P38041.
T3 chain: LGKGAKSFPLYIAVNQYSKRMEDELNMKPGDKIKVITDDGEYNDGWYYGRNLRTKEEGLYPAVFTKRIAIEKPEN

Experiment [4] concerns the target T4, Yhr016c SH3 (YSC84_YEAST), P32793.
T4 chain: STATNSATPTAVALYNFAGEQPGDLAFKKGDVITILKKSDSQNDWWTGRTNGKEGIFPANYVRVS

Experiment [5] concerns the target Sho1 SH3 (SHO1_YEAST), P40073.
The target of experiment [6] is T5, Rvs167 SH3 (RV167_YEAST), P39743.
T5 chain: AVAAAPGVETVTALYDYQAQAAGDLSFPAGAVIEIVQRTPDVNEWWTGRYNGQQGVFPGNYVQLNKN

Experiment [7] concerns the target T6, Myo5 SH3 (MYO5_YEAST), Q04439.
T6 chain: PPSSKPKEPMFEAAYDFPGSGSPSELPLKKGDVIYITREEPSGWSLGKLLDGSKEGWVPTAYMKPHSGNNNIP

Sequence of Sho1 SH3 (SHO1_YEAST), P40073 (P40073 295-366): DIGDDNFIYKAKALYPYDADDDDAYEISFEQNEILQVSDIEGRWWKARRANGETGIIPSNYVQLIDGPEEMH

As to EFDEKLPPKKPAGP [YMR072W 109-122], the normalised SPOT signal, Boehringer light units (BLU); mean over the file's lines of this peptide was determined as 72.6 in experiment [1]; 2 in experiment [2]; 40.4 in experiment [3]; 16.2 in experiment [4]; 38.9 in experiment [5]; 32.7 in experiment [6]. In addition, the normalised SPOT signal, Boehringer light units (BLU); mean over the file's lines of this peptide in experiment [7] turned out to be 87.3.
Take EFIVKTIPVPPRDF [YER025W 296-309]: the normalised SPOT signal, Boehringer light units (BLU); mean over the file's lines of this peptide was 202 in experiment [1]; 13.8 in experiment [2]; 15 in experiment [3]; 44.4 in experiment [4]; 57.2 in experiment [5]; 30.4 in experiment [6]. Moreover, the normalised SPOT signal, Boehringer light units (BLU); mean over the file's lines of this peptide in experiment [7] came to 115.
In the case of EFPGKKSPRLPHRN [YPR097W 343-356], the normalised SPOT signal, Boehringer light units (BLU); mean over the file's lines of this peptide in experiment [1] is 8340; in experiment [2], 42.9; in experiment [3], 1090; in experiment [4], 7160; in experiment [5], 71.6; in experiment [6] it was 3000. In experiment [7], this molecule came in with a normalised SPOT signal, Boehringer light units (BLU); mean over the file's lines of this peptide of 368.
Take EFQSKSSPVPPASE [YDR008C 96-109]: the normalised SPOT signal, Boehringer light units (BLU); mean over the file's lines of this peptide in experiment [1] was 7.3; in experiment [2], 26.5; in experiment [3] it was 1430; in experiment [4] it was 49.9; in experiment [5], 34.9; in experiment [6], 83.5. In experiment [7], this molecule came in with a normalised SPOT signal, Boehringer light units (BLU); mean over the file's lines of this peptide of 78.8.
Take EHLQKERPKPPNKG [YOR233W 329-342]: the normalised SPOT signal, Boehringer light units (BLU); mean over the file's lines of this peptide came out at 824 in experiment [1]; 29.7 in experiment [2]; 744 in experiment [3]; 55.1 in experiment [4]; 54.5 in experiment [5]; 112 in experiment [6]. The molecule also displayed a normalised SPOT signal, Boehringer light units (BLU); mean over the file's lines of this peptide in experiment [7] of 364.
Regarding EFLIKEDPDLPPQG [YCL024W 744-757], the normalised SPOT signal, Boehringer light units (BLU); mean over the file's lines of this peptide in experiment [1] was 8.1; in experiment [2] it was 69.1; in experiment [3] it was 78; in experiment [4], 51.8; in experiment [5], 65.4; in experiment [6] it was 134. The normalised SPOT signal, Boehringer light units (BLU); mean over the file's lines of this peptide in experiment [7] was 175.
For the molecule EFDLKNIPMMPAGE [YDL229W 462-475], the normalised SPOT signal, Boehringer light units (BLU); mean over the file's lines of this peptide in experiment [1] was determined as 112; in experiment [2], 9.1; in experiment [3], 18.6; in experiment [4], 32.3; in experiment [5] it was 37.1; in experiment [6], 74.1. The normalised SPOT signal, Boehringer light units (BLU); mean over the file's lines of this peptide in experiment [7] is 106.
In the case of EFTTREGPHQPIGN [YDR123C 192-205], the normalised SPOT signal, Boehringer light units (BLU); mean over the file's lines of this peptide was determined as 9.9 in experiment [1]; 0 in experiment [2]; 268 in experiment [3]; 34.5 in experiment [4]; 43.5 in experiment [5]; 29.4 in experiment [6]. In experiment [7], the normalised SPOT signal, Boehringer light units (BLU); mean over the file's lines of this peptide stood at 79.8.
As for EFLRKHSPKAPATG [YMR021C 127-140], the normalised SPOT signal, Boehringer light units (BLU); mean over the file's lines of this peptide in experiment [1] was determined as 227; in experiment [2], 37.3; in experiment [3], 620; in experiment [4], 13.2; in experiment [5], 91; in experiment [6] it was 126. The same molecule came in with a normalised SPOT signal, Boehringer light units (BLU); mean over the file's lines of this peptide in experiment [7] of 413.
Regarding EGRSRLFPHSPLGR [YGL122C 259-272], the normalised SPOT signal, Boehringer light units (BLU); mean over the file's lines of this peptide is 2220 in experiment [1]; 165 in experiment [2]; 14900 in experiment [3]; 90.9 in experiment [4]; 41.4 in experiment [5]; 393 in experiment [6]. Further, the normalised SPOT signal, Boehringer light units (BLU); mean over the file's lines of this peptide in experiment [7] turned out to be 141.
With EGTTKVDPIIPVPE [YJR122W 96-109], the normalised SPOT signal, Boehringer light units (BLU); mean over the file's lines of this peptide worked out at 0 in experiment [1]; 1.6 in experiment [2]; 57.3 in experiment [3]; 0 in experiment [4]; 70.4 in experiment [5]; 53.1 in experiment [6]. Also, in experiment [7], the normalised SPOT signal, Boehringer light units (BLU); mean over the file's lines of this peptide was 180.
